US20240254232A1 (SUNSHINE GUOJIAN PHARMACEUTICAL SHANGHAI, published 2024)

T1: LAG-3 extracellular segment recombinant protein with polyhistidine tag (LAG3-His) (UniProt P18627 23-450, limits assumed)
T1 construct: extracellular domain
T1 sequence (looked up): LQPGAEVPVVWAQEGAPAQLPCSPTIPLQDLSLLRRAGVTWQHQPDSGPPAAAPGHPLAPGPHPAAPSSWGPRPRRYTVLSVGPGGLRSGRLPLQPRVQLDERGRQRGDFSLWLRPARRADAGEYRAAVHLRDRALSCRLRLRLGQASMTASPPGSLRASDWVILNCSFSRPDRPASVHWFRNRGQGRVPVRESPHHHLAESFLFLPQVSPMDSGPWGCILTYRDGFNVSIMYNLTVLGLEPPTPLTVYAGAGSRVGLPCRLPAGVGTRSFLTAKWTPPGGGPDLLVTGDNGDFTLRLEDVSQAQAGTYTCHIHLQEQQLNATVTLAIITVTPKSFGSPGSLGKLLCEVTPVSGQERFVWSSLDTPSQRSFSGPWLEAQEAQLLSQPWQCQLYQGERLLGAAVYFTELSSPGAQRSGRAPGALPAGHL


Experiments:
[1] = target: T1, LAG-3 extracellular segment recombinant …; experiment: ELISA, LAG3-His coated at 10 ng/well, HRP anti-human Fc detection
Description: (§1) The ELISA detection method used in the following embodiments is described as follows: the corresponding recombinant protein is coated on the microplate, and the microplate is closed with PBST containing 1% bovine serum albumin (PBST is a phosphate buffer containing 0.05% Tween-20). The antibody to be tested was sequentially diluted and then transferred to the above recombinant protein-coated microplates, incubated at room temperature for half an hour and then washed, appropriately diluted HRP (Horseradish Peroxidase)-labeled goat anti-human antibody (Fc specific, purchased from Sigma) was incubated at room temperature for half an hour and then washed, and 100 μl of TMB (3,3′,5,5′-Tetramethylbenzidine) was added to each well.
(§2) Hereby, HER2 extracellular segment recombinant protein (referred to as HER2-His, purchased from Sino Biological Inc.), PD-1 extracellular segment recombinant protein (referred to as PD1-His, purchased from Sino Biological Inc.), and LAG-3 extracellular segment recombinant protein (referred to as LAG3-His, purchased from ACROBiosystems) with polyhistidine tags were coated on microplates at concentrations of 20 ng/well, 20 ng/well, and 10 ng/well, respectively.

[2] = target: T2, PD-1 extracellular segment recombinant protein with polyhistidine tag (PD1-His) (UniProt Q15116 25-170, limits assumed); experiment: ELISA, PD1-His coated at 20 ng/well, HRP anti-human Fc detection
T2 construct: extracellular domain
Description: as §1, §2

[3] = target: T3, HER2 extracellular segment recombinant protein with polyhistidine tag (HER2-His) (UniProt P04626 23-652, limits assumed); experiment: ELISA, HER2-His coated at 20 ng/well, HRP anti-human Fc detection
T3 construct: extracellular domain
Description: as §1, §2

T2 sequence (Q15116 25-170 limits assumed): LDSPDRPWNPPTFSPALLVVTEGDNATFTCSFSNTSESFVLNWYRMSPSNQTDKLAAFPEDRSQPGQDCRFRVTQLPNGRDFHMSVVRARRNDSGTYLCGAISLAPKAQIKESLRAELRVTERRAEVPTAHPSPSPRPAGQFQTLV

Binder | EC50 [1] [nM] | EC50 [2] [nM] | EC50 [3] [nM]
609-302-134-IgG4, hexavalent trispecific antibody against PD-1, HER-2 and LAG-3 (antibody) heavy: not shown light 1: not shown light 2: DIQMTQSPSSLSASVGDRVTITCRASQDIGSRLNWLQQKPGKSIKRLIYATSSLESGVPSRFSGSRSGSDYTLTISSLQPEDFATYYCLQSGSSPPTFGQGTKVEIKRTVAAPSVFIFPPSDEQLKSGTASVVCLLNNFYPREAKVQWKVDNALQSGNSQESVTEQDSKDSTYSLSSTLTLSKADYEKHKVYACEVTHQGLSSPVTKSFNRGEC | 0.26 | 0.125 | 
609-302-(105CC)-134-IgG4, hexavalent trispecific antibody against PD-1, HER-2 and LAG-3 (antibody) heavy: not shown light 1: not shown light 2: DIQMTQSPSSLSASVGDRVTITCRASQDIGSRLNWLQQKPGKSIKRLIYATSSLESGVPSRFSGSRSGSDYTLTISSLQPEDFATYYCLQSGSSPPTFGQGTKVEIKRTVAAPSVFIFPPSDEQLKSGTASVVCLLNNFYPREAKVQWKVDNALQSGNSQESVTEQDSKDSTYSLSSTLTLSKADYEKHKVYACEVTHQGLSSPVTKSFNRGEC | 0.286 | 0.104 | 0.42

Now those with a lower EC50 [1], led by results:

EC50 [1] [nM] | EC50 [2] [nM] | EC50 [3] [nM] | Binder
0.226 | 0.0911 | 0.355 | 609-302-(44CC)-134-IgG4, hexavalent trispecific antibody against PD-1, HER-2 and LAG-3 (antibody) heavy: not shown light 1: not shown light 2: DIQMTQSPSSLSASVGDRVTITCRASQDIGSRLNWLQQKPGKSIKRLIYATSSLESGVPSRFSGSRSGSDYTLTISSLQPEDFATYYCLQSGSSPPTFGQGTKVEIKRTVAAPSVFIFPPSDEQLKSGTASVVCLLNNFYPREAKVQWKVDNALQSGNSQESVTEQDSKDSTYSLSSTLTLSKADYEKHKVYACEVTHQGLSSPVTKSFNRGEC
0.122 |  |  | 134-IgG4 (134 Hu IgG4-C91S), humanized monoclonal antibody against human LAG-3 (antibody, V domains shown, also called Anti-LAG-3 antibody) VH: QVQLVQSGAEVKKPGASVKVSCKASGYTLTAYYMNWVRQAPGQSLEWIGVINPYNGDSSYNQKFKGRATLTVDKSTSTAYMELSSLRSEDTAVYYCARDDGYYRWYFDVWGQGTLVTVSS VL: DIQMTQSPSSLSASVGDRVTITCRASQDIGSRLNWLQQKPGKSIKRLIYATSSLESGVPSRFSGSRSGSDYTLTISSLQPEDFATYYCLQSGSSPPTFGQGTKVEIKR
